# Laboratory results from PMC2581579.
# Molecular target: mutant ferritin light chain p.Phe167SerfsX26 (MT-FTL) homopolymer (human) (UniProt P02792)
# Assay: SEC
substance,measurement,value
mutant ferritin light chain p.Phe167SerfsX26 (MT-FTL) homopolymer (from UniProt P02792 1-166) (natural protein),stoichiometry N,24
